One series deals with PvdL module 1 (PvdLM1) (Pseudomonas aeruginosa, UniProt Q9I157). The experiment in a line: ATP/[…]-pyrophosphate exchange assay. It counts as biochemical.
Series [1] has as its system CCCCCCCCCCCC(=O)Oc1ccc([N+](=O)[O-])cc1. The experiment in a line: purified protein.
For series [2], the system named is CCCCCCCCCCCC(=O)Oc1ccc2c(C)cc(=O)oc2c1. The series can be described thus: purified protein.
The subject of series [3] is CCCCCCCCCCCCCC(=O)Oc1ccc([N+](=O)[O-])cc1. The experiment in a line: purified protein. The settings on record: myristate bound to Serβ[…].
Series [4] addresses T1, PvdQ (Pseudomonas aeruginosa, UniProt Q9I194). The experiment in a line: co-crystal structure. It is filed as biochemical.
Series [5] deals with T1, PvdQ. The experiment in a line: crystal structure, co-purified ligand. It counts as binding.

As usually defined, the Km is the substrate concentration at which the rate is half of its maximum. For orientation: kcat means the maximal rate divided by the concentration of active sites. By kcat/Km is commonly meant the second-order rate constant that governs catalysis at low substrate concentration. By pIC50 is commonly meant the negative decadic logarithm of the IC50, by convention in mol/L.

pIC50: −log10 of the molar value.

T1 sequence (Q9I194 24-193): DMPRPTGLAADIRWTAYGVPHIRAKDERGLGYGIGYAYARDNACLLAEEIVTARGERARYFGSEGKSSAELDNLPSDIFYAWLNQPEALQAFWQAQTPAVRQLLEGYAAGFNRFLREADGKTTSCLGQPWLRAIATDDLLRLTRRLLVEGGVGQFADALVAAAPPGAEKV
T1 sequence (Q9I194 217-762): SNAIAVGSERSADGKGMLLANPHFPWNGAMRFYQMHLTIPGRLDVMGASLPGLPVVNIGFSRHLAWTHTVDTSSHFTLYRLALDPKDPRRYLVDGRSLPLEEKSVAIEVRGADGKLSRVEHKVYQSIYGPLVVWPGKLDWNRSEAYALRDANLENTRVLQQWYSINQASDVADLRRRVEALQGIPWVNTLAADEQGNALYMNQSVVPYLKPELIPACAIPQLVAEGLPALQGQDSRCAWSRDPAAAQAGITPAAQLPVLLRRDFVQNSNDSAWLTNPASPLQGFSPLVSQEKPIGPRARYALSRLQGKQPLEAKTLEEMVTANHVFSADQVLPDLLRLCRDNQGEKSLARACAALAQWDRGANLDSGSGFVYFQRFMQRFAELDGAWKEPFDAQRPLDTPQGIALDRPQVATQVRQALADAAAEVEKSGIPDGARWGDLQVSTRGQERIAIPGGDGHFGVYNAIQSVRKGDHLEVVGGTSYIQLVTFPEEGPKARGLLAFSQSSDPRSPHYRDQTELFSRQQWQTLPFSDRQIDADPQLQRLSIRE

As to `CCCCCCCCCCCCCC(=O)O` [C14, myristate], the “CPM (×10^3) ^a” value at PvdL module 1 (PvdLM1) is on record as 160.0 ± 14.1 CPM (×10^3).

Take PvdQ (Pseudomonas aeruginosa PAO1): in series [1], the Km is 11.4 mM, the kcat turned out to be 1.99 s⁻¹ and the kcat/Km amounted to 175 M⁻¹ s⁻¹. In addition, in series [2], the Km was determined as 0.75 mM, the kcat is 1.24 s⁻¹ and the kcat/Km came out at 1660 M⁻¹ s⁻¹. Further, in series [3], the Michaelis constant (Km) stood at 1.4 mM, the kcat is 0.74 s⁻¹ and the catalytic efficiency (kcat/Km) amounted to 521 M⁻¹ s⁻¹.

In the case of `O=c1onc2n1-c1cc(Br)ccc1OC2` [compound 922, 4H-8-Bromo-1,2,4-oxadiazolo[3,4-d]benz[b][1,4]oxazin-1-one], the pIC50 on PvdQ [4] is 3.84.

With `CCCCCCCC(=O)O` [octanoate], the “crystal structure, co-purified ligand” value at PvdQ [5] is reported as “co-purifying octanoate molecule bound non-covalently in the fatty acid binding pocket”.

The values above are taken from article PMC3220798 (2011).
